Patent US20090068182A1 (ARIUS RESEARCH, published 2009)

What was measured:
human CD9 [1] = biological target: T1, human CD9 (human, UniProt P21926 2-228); test: flow cytometry on melanoma WM35 cells, antibody at 20 micrograms/mL
T1 construct: whole, on cells; Endogenous CD9; It stood on human cell lines (FACS, cell ELISA) and in tissue sections (IHC); For immunoprecipitation and Western blot it was solubilised from BxPC-3 cell lysate (band of about 25 kDa); also called AR40A746.2.3 antigen; IDAC 141204-01 antigen
T1 sequence (looked up): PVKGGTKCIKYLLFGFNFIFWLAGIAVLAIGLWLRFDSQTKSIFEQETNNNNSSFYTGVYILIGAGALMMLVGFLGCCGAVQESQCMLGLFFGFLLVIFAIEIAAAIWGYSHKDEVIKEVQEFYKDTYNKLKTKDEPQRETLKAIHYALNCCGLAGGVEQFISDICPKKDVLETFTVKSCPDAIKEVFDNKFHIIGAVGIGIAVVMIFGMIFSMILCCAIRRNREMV
Experimental: (§1) All cell lines were obtained from the American Type Tissue Collection (ATCC, Manassas, Va.) except for the melanoma cell lines WM9, WM35, WM164, WM451, WM537, WM852, WM983, WM1205 and WM1232 which were obtained from Dr. David Hogg (University of Toronto, Toronto, Canada).
(§2) Cells were prepared for FACS by initially washing the cell monolayer with DPBS (without Ca⁺⁺ and Mg⁺⁺). Cell dissociation buffer (Invitrogen, Burlington, ON) was then used to dislodge the cells from their cell culture plates at 37° C. After centrifugation and collection, the cells were resuspended in DPBS containing MgCl₂ CaCl₂ and 2 percent fetal bovine serum at 4° C. (staining media) and counted, aliquoted to appropriate cell density, spun down to pellet the cells and resuspended in staining media at 4° C. in the presence of the test antibody (AR40A746.2.3) or control antibodies (isotype control, anti-EGFR). Isotype control and the test antibody were assessed at 20 micrograms/mL whereas anti-EGFR was assessed at 5 micrograms/mL on ice for 30 minutes. Prior to the addition of Alexa Fluor 546-conjugated secondary antibody the cells were washed once with staining media. […] Flow cytometric acquisition of the cells was assessed by running samples on a FACSarray™ using the FACSarray™ System Software (BD Biosciences, Oakville, ON). […]

human CD9 [2] = biological target: T1, human CD9; test: flow cytometry on melanoma WM451 cells, antibody at 20 micrograms/mL
Experimental: as §1, §2

human CD9 [3] = biological target: T1, human CD9; test: flow cytometry on melanoma WM9 cells, antibody at 20 micrograms/mL
Experimental: as §1, §2

human CD9 [4] = biological target: T1, human CD9; test: flow cytometry on melanoma A2058 cells, antibody at 20 micrograms/mL
Experimental: as §1, §2

human CD9 [5] = biological target: T1, human CD9; test: flow cytometry on melanoma WM164 cells, antibody at 20 micrograms/mL
Experimental: as §1, §2

human CD9 [6] = biological target: T1, human CD9; test: flow cytometry on colon cancer DLD-1 cells, antibody at 20 micrograms/mL
Experimental: as §1, §2

human CD9 [7] = biological target: T1, human CD9; test: flow cytometry on ovarian cancer OVCAR-3 cells, antibody at 20 micrograms/mL
Experimental: (§3) David Hogg (University of Toronto, Toronto, Canada).
(§4) Cells were prepared for FACS by initially washing the cell monolayer with DPBS (without Ca⁺⁺ and Mg⁺⁺). Cell dissociation buffer (Invitrogen, Burlington, ON) was then used to dislodge the cells from their cell culture plates at 37° C. After centrifugation and collection, the cells were resuspended in DPBS containing MgCl₂ CaCl₂ and 2 percent fetal bovine serum at 4° C. (staining media) and counted, aliquoted to appropriate cell density, spun down to pellet the cells and resuspended in staining media at 4° C. in the presence of the test antibody (AR40A746.2.3) or control antibodies (isotype control, anti-EGFR). Isotype control and the test antibody were assessed at 20 micrograms/mL whereas anti-EGFR was assessed at 5 micrograms/mL on ice for 30 minutes. Prior to the addition of Alexa Fluor 546-conjugated secondary antibody the cells were washed once with staining media. The Alexa Fluor 546-conjugated antibody in staining media was then added for 30 minutes at 4° C. The cells were then washed for the final time and resuspended in fixing media (staining media containing 1.5 percent paraformaldehyde). Flow cytometric acquisition of the cells was assessed by running samples on a FACSarray™ using the FACSarray™ System Software (BD Biosciences, Oakville, ON). […]
(§5) FIG. 2 presents the mean fluorescence intensity fold increase above isotype control. […]

[8] = biological target: T2, AR40A746.2.3 antigen (CD9) in mouse normal tissues (mouse, UniProt P40240 1-226); test: IHC on formalin fixed paraffin embedded normal tissue micro array
T2 construct: whole, on cells; also called mouse CD9
T2 sequence (looked up): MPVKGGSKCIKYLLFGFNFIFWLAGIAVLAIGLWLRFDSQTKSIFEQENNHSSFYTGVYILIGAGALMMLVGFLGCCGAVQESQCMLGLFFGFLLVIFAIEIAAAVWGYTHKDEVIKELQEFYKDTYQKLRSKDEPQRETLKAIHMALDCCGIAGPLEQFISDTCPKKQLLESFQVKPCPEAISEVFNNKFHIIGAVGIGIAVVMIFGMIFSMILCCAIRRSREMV
Experimental: (§6) IHC studies were conducted to evaluate the cross reactivity of AR40A746.2.3 to non human species tissues in order to find suitable preclinical toxicology model(s). All tissues used were formalin fixed paraffin embedded. The binding of AR40A746.2.3 to 8 normal tissues of cynomolgus and rhesus monkey (Biochain, CA, USA) and 10 normal tissues of rabbit, rat, mouse and sheep (Zymed laboratories Inc, CA, USA) was performed using tissue micro arrays. Previous experiments were conducted to optimize the IHC binding conditions of the antibody. Tissue sections were deparaffinized by drying in an oven at 58° C. for 1 hour and dewaxed by immersing in xylene 5 times for 4 minutes each in Coplin jars. Following treatment through a series of graded ethanol washes (100 to 75 percent) the sections were re-hydrated in water. The slides were immersed in 10 mM citrate buffer at pH 6 (Dako, Toronto, Ontario) then microwaved at high, medium, and low power settings for 5 minutes each and finally immersed in cold PBS. […] Immunoreactivity of the primary antibodies was detected/visualized with HRP conjugated secondary antibodies as supplied (Dako Envision System, Toronto, Ontario) for 30 minutes at room temperature. […]

[9] = biological target: T3, AR40A746.2.3 antigen (CD9) in rat normal tissues (rat, UniProt P40241 1-226); test: as above
T3 construct: whole, on cells; also called rat CD9
T3 sequence (looked up): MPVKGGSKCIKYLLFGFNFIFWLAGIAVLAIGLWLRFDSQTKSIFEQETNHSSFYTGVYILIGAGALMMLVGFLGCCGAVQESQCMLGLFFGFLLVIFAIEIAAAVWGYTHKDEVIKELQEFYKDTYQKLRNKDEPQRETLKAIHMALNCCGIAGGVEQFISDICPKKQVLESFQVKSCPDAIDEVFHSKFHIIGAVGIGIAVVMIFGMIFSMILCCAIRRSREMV
Experimental: as §6

human CD9 [10] = biological target: T1, human CD9; test: flow cytometry on colon cancer SW1116 cells, antibody at 20 micrograms/mL
Experimental: as §1, §2

human CD9 [11] = biological target: T1, human CD9; test: flow cytometry on melanoma WM1232 cells, antibody at 20 micrograms/mL
Experimental: as §1, §2

human CD9 [12] = biological target: T1, human CD9; test: flow cytometry on prostate cancer PC-3 cells, antibody at 20 micrograms/mL
Experimental: as §1, §2

human CD9 [13] = biological target: T1, human CD9; test: flow cytometry on prostate cancer DU-145 cells, antibody at 20 micrograms/mL
Experimental: as §3, §4, §5

human CD9 [14] = biological target: T1, human CD9; test: flow cytometry on melanoma WM537 cells, antibody at 20 micrograms/mL
Experimental: as §1, §2

human CD9 [15] = biological target: T1, human CD9; test: flow cytometry on breast cancer MDA-MB-231 cells, antibody at 20 micrograms/mL
Experimental: as §1, §2

human CD9 [16] = biological target: T1, human CD9; test: flow cytometry on non-cancer lung Hs888.Lu cells, antibody at 20 micrograms/mL
Experimental: as §1, §2

human CD9 [17] = biological target: T1, human CD9; test: flow cytometry on colon cancer Lovo cells, antibody at 20 micrograms/mL
Experimental: as §3, §4, §5

human CD9 [18] = biological target: T1, human CD9; test: flow cytometry on non-cancer skin CCD-27sk cells, antibody at 20 micrograms/mL
Experimental: as §1, §2

[19] = biological target: T4, AR40A746.2.3 antigen (CD9) in rhesus monkey normal tissues (rhesus monkey, UniProt I0FWF4 2-228); test: IHC on normal tissue micro arrays, 5 micrograms/mL
T4 construct: whole, on cells; also called rhesus monkey CD9
T4 sequence: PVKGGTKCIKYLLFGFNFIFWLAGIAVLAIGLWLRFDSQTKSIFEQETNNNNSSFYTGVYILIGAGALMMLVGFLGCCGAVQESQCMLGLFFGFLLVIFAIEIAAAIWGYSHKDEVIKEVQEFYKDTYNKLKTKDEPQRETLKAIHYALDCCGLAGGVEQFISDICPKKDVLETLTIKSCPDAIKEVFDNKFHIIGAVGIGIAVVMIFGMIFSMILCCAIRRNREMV
Experimental: as §6

human CD9 [20] = biological target: T1, human CD9; test: flow cytometry on colon cancer HT-29 cells, antibody at 20 micrograms/mL
Experimental: as §3, §4, §5

human CD9 [21] = biological target: T1, human CD9; test: flow cytometry on melanoma WM852 cells, antibody at 20 micrograms/mL
Experimental: as §1, §2

human CD9 [22] = biological target: T1, human CD9; test: flow cytometry on melanoma A375 cells, antibody at 20 micrograms/mL
Experimental: as §1, §2

human CD9 [23] = biological target: T1, human CD9; test: flow cytometry on melanoma WM983 cells, antibody at 20 micrograms/mL
Experimental: as §1, §2

human CD9 [24] = biological target: T1, human CD9; test: flow cytometry on pancreatic cancer BxPC-3 cells, antibody at 20 micrograms/mL
Experimental: as §1, §2

human CD9 [25] = biological target: T1, human CD9; test: flow cytometry on breast cancer MCF-7 cells, antibody at 20 micrograms/mL
Experimental: as §1, §2

B1: AR40A746.2.3 monoclonal antibody (hybridoma IDAC 141204-01) (antibody, V domains shown)
VH: DVQLQESGPGLVKPSQSLSLTCTVTGYSITSDYAWNWIRQFPGNKLEWMGYISYSGFTNYNPSLKSRISITRDTSKNQFFLQLSSVTTEDTATYFCEGGNYRYSWFPYWGQGTLVTVSA
VL: DIQMTQTTSSLSASLGDRVTISCSASQGISNYLNWYQQKPDGNVKLLIYYTSSLHSGVPSRFSGSGSGTDYSLTISNLEPEDIATYYCQQYSKLPYTFGGGTKLEIKR
notes: also called IDAC 141204-01 antibody; mAR40A746.2.3
- mean fluorescence intensity fold increase above isotype control (human CD9 [1]): 13.8 fold
- mean fluorescence intensity fold increase above isotype control (human CD9 [2]): 7 fold
- mean fluorescence intensity fold increase above isotype control (human CD9 [3]): 4.8 fold
- mean fluorescence intensity fold increase above isotype control (human CD9 [4]): 2.7 fold
- mean fluorescence intensity fold increase above isotype control (human CD9 [5]): 3.3 fold
- mean fluorescence intensity fold increase above isotype control (human CD9 [6]): 50.5 fold
- mean fluorescence intensity fold increase above isotype control (human CD9 [7]): 64.9 fold
- binding result [8]: no binding (tested: 5 micrograms/mL)
- binding result [9]: no binding (tested: 5 micrograms/mL)
- mean fluorescence intensity fold increase above isotype control (human CD9 [10]): 13.3 fold
- mean fluorescence intensity fold increase above isotype control (human CD9 [11]): 3.4 fold
- mean fluorescence intensity fold increase above isotype control (human CD9 [12]): 37.8 fold
- mean fluorescence intensity fold increase above isotype control (human CD9 [13]): 30.4 fold
- mean fluorescence intensity fold increase above isotype control (human CD9 [14]): 2.6 fold
- mean fluorescence intensity fold increase above isotype control (human CD9 [15]): 19.8 fold
- mean fluorescence intensity fold increase above isotype control (human CD9 [16]): 20.5 fold
- mean fluorescence intensity fold increase above isotype control (human CD9 [17]): 31.6 fold
- mean fluorescence intensity fold increase above isotype control (human CD9 [18]): 8.7 fold
- binding result [19]: binds
- mean fluorescence intensity fold increase above isotype control (human CD9 [20]): 80.5 fold
- mean fluorescence intensity fold increase above isotype control (human CD9 [21]): 4.2 fold
- mean fluorescence intensity fold increase above isotype control (human CD9 [22]): 4.7 fold
- mean fluorescence intensity fold increase above isotype control (human CD9 [23]): 3.9 fold
- mean fluorescence intensity fold increase above isotype control (human CD9 [24]): 18.4 fold
- mean fluorescence intensity fold increase above isotype control (human CD9 [25]): 107 fold
